Data from paper PMC4703882.

Tested on: RAD51 wild type (Homo sapiens)
Experiment: EMSA
Conditions: 1 mM ATP, 2 mM Ca2+; saturated at 0.8 uM; EMSA: 50 mM Tris-HCl pH 7.5, 100 mM NaCl, 2 mM CaCl2, 1 mM ATP, 1 mM DTT, 5 nM DNA, 5 min at 37 C; 0.8% agarose in 1x TB (dsDNA) or 5% native PAGE in 0.5x TB …

ds-66 bp-AF532
K half: 300 nM
